Consider two molecules from PMC10625600, “A TRIM21-based bioPROTAC highlights the therapeutic benefit of HuR degradation”.

By Ki is commonly meant a measure of affinity in units of concentration, obtained from inhibition or displacement. One may read the Kd as the constant that tells how readily two partners part at equilibrium.

For data set [1], the target named is T1, HuR full-length (UniProt Q15717 1-326). The experiment in a line: competition fluorescence polarisation; 8 nM HuR, 8 nM Msi1-FITC probe N1 displaced; FP: 10 mM HEPES pH 7.4, 150 mM NaCl, 3 mM EDTA, 0.05% Tween-20; competition 5 min at room temperature; SPR: Biacore 8K, streptavidin chip, buffer not given in the material. Particulars: protein: recombinant; tags: Avi-tag, TEV-cleavable His-tag; single-stranded. A general note: Polarisation of emitted light reports the rotation of a fluorescent probe.

Data set [2] has as its target T1, HuR full-length. The experiment in a line: fluorescence polarisation; 10 nM probe, 0-2000 nM HuR; FP: 10 mM HEPES pH 7.4, 150 mM NaCl, 3 mM EDTA, 0.05% Tween-20; competition 5 min at room temperature; SPR: Biacore 8K, streptavidin chip, buffer not given in the material. The note with it: protein: recombinant; tags: Avi-tag, TEV-cleavable His-tag; label: 3' fluorescein (3FluorT; printed after the 3' G, may add a labelled T); single-stranded.

T1 sequence (Q15717 whole entry): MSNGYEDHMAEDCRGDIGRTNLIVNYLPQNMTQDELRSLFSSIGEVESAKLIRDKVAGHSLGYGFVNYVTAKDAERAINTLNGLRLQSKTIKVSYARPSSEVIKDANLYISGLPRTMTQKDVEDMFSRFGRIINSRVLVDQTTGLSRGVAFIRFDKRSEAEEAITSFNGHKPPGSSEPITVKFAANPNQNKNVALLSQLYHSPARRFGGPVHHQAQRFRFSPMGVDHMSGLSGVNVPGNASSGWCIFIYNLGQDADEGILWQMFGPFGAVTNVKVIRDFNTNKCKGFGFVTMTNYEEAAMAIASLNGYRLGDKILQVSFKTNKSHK

With GCUUUUAUUUAUUUUG (ssRNA) [unlabelled Msi1 RNA], the Ki in data set [1] is 4 nM.
Consider GCUUUUAUUUAUUUUG (ssRNA) [Msi1-FITC RNA probe], for which the Kd in data set [2] was found to be 3.7 nM.
